The source of these data is article PMC7804152, “Structural basis for the multi-activity factor Rad5 in replication stress tolerance”.

The target of series [1] is T1, KlRad5 (Kluyveromyces lactis, UniProt Q6CJM4 163-1114).
T1 sequence: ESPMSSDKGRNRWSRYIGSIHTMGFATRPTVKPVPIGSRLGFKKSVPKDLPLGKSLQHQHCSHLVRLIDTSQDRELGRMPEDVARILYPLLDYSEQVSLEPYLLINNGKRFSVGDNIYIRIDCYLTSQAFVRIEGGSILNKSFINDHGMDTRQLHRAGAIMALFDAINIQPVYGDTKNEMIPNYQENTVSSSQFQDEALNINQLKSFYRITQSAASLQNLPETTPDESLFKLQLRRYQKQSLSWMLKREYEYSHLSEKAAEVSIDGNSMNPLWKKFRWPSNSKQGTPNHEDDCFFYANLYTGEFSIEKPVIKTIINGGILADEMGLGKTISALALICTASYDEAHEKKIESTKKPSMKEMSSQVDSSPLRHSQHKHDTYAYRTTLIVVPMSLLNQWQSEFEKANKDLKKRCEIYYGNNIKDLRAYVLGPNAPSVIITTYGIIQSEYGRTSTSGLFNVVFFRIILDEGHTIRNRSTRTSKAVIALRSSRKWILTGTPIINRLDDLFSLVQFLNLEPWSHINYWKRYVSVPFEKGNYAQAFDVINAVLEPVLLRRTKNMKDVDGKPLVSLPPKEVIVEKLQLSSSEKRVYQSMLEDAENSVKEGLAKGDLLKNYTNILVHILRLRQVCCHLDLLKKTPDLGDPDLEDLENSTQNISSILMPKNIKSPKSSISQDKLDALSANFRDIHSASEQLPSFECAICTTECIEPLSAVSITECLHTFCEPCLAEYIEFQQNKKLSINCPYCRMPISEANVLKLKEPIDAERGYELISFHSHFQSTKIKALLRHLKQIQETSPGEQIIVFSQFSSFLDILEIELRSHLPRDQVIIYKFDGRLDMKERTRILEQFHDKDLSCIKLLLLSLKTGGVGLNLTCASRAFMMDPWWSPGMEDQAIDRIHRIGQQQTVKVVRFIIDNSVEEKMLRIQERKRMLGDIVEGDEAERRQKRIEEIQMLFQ
Briefly: pull-down; 50 mM NaCl; FP: 20 mM Tris pH 7.5, 50 mM (dsDNA, KlHIRAN) or 70 mM (ssDNA) NaCl, 2 mM MgCl2, 1 nM DNA, room temp; EMSA: 20 mM Tris pH 7.5, 100 mM KCl, 0.5 mM DTT, 3% glycerol, 2 mM MgCl2, 250 ug/mL BSA, 4 C; pull-down: 20 mM Tris pH 7.5, 50 mM NaCl, 4 C. The conditions noted are these: protein: recombinant; tags: none; label: 5'-biotin; blunt, self-annealing, 2 copies of D1. On the technique in general: In EMSA bound probe runs differently from free probe, usually more slowly.

The target of series [2] is T1, KlRad5. The series is described as follows: hydrogen-deuterium exchange MS; 200 mM NaCl; protection of 548-554, 684-700, 1039-1049, 1081-1092; FP: 20 mM Tris pH 7.5, 50 mM (dsDNA, KlHIRAN) or 70 mM (ssDNA) NaCl, 2 mM MgCl2, 1 nM DNA, room temp; EMSA: 20 mM Tris pH 7.5, 100 mM KCl, 0.5 mM DTT, 3% glycerol, 2 mM MgCl2, 250 ug/mL BSA, 4 C; pull-down: 20 mM Tris pH 7.5, 50 mM NaCl, 4 C. To be noted: protein: recombinant; tags: none; blunt, self-annealing, 2 copies of D1.

The target of a further series is T2, His-KlRad5 (Kluyveromyces lactis, UniProt Q6CJM4 163-1114).
T2 sequence: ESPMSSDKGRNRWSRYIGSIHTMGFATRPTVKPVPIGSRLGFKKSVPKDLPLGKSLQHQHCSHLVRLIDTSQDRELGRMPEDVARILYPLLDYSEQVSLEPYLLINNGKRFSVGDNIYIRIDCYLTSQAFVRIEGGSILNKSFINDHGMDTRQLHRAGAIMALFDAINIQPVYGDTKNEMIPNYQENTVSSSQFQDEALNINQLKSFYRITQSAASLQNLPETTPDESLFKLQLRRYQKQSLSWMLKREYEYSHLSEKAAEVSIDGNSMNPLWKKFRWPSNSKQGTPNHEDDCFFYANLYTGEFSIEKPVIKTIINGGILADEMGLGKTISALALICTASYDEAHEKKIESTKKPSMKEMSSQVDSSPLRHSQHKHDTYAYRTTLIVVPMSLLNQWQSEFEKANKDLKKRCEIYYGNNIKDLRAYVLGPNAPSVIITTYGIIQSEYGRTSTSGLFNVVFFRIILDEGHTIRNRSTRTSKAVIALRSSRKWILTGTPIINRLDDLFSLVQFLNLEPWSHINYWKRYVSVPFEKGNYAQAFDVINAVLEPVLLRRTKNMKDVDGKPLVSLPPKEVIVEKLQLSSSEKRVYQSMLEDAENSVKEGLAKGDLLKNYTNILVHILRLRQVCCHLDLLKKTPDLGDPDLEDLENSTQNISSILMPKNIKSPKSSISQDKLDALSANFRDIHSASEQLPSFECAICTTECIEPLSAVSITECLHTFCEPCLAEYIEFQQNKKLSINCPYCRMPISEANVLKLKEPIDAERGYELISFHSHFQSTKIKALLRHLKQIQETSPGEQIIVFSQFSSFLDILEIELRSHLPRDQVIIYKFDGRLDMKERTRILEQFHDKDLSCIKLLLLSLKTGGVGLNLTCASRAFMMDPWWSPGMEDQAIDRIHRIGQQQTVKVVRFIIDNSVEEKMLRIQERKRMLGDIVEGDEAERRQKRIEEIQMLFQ
Briefly: fluorescence polarization; FP: 20 mM Tris pH 7.5, 50 mM (dsDNA, KlHIRAN) or 70 mM (ssDNA) NaCl, 2 mM MgCl2, 1 nM DNA, room temp; EMSA: 20 mM Tris pH 7.5, 100 mM KCl, 0.5 mM DTT, 3% glycerol, 2 mM MgCl2, 250 ug/mL BSA, 4 C; pull-down: 20 mM Tris pH 7.5, 50 mM NaCl, 4 C. To be noted: protein: recombinant; tags: N-terminal His6; label: 5'-FAM; blunt. A general note: Fluorescence polarisation rises when a labelled molecule tumbles more slowly, as on binding a larger partner.

In series [3] the target is T1, KlRad5. Briefly: fluorescence polarization; 50 mM NaCl; high affinity, Kd only in figure; FP: 20 mM Tris pH 7.5, 50 mM (dsDNA, KlHIRAN) or 70 mM (ssDNA) NaCl, 2 mM MgCl2, 1 nM DNA, room temp; EMSA: 20 mM Tris pH 7.5, 100 mM KCl, 0.5 mM DTT, 3% glycerol, 2 mM MgCl2, 250 ug/mL BSA, 4 C; pull-down: 20 mM Tris pH 7.5, 50 mM NaCl, 4 C. To be noted: protein: recombinant; tags: none; label: 5'-FAM; blunt.

In the next series the target is T3, KlHIRAN (Kluyveromyces lactis, UniProt Q6CJM4 174-341).
T3 sequence: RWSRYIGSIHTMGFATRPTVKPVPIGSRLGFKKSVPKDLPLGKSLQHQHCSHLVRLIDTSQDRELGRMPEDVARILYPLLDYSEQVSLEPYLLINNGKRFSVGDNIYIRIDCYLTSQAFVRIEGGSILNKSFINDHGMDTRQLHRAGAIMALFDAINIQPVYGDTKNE
The series is described as follows: fluorescence polarization; 50 mM NaCl; stronger than blunt dsDNA; FP: 20 mM Tris pH 7.5, 50 mM (dsDNA, KlHIRAN) or 70 mM (ssDNA) NaCl, 2 mM MgCl2, 1 nM DNA, room temp; EMSA: 20 mM Tris pH 7.5, 100 mM KCl, 0.5 mM DTT, 3% glycerol, 2 mM MgCl2, 250 ug/mL BSA, 4 C; pull-down: 20 mM Tris pH 7.5, 50 mM NaCl, 4 C. The conditions noted are these: protein: recombinant, tags: intein-CBD cleaved off.

B1: D1 dsDNA, 5'-biotin (dsDNA)
DNA 1: TCGGATCCTCTAGACAGCTCCATGCATGGAGCTGTCTAGAGGATCCGA
DNA 2: TCGGATCCTCTAGACAGCTCCATGCATGGAGCTGTCTAGAGGATCCGA
With B1, in the series with KlRad5 [1], the binding result is “binds”.

B2: D1 dsDNA, unlabelled (dsDNA)
DNA 1: TCGGATCCTCTAGACAGCTCCATGCATGGAGCTGTCTAGAGGATCCGA
DNA 2: TCGGATCCTCTAGACAGCTCCATGCATGGAGCTGTCTAGAGGATCCGA
With B2, the binding result with KlRad5 [2] is “binds”.

B3: D2a/D2b dsDNA (dsDNA)
DNA 1: ACCAGTGCCAGTGAT
DNA 2: ATCACTGGCACTGGT
With B3, the binding result with His-KlRad5 and with KlRad5 [3] was “binds” each time.

For the molecule CAACGTCATAGACGATTACATTGCTACATGGAGCTGTCTAGAGGATCCGA (ssDNA) [D3a ssDNA], the binding result with KlHIRAN (label: 5'-FAM) is “binds”.

B4: D3a/D3c 5'-overhang dsDNA (dsDNA)
DNA 1: CAACGTCATAGACGATTACATTGCTACATGGAGCTGTCTAGAGGATCCGA
DNA 2: TCGGATCCTCTAGACAGCTCCATGT
As for B4, the binding result with KlHIRAN (label: 5'-FAM on D3a, 5' overhang 25 nt (D3a)) is recorded as “binds”.

B5: D3a/D3d 3'-overhang dsDNA (dsDNA)
DNA 1: CAACGTCATAGACGATTACATTGCTACATGGAGCTGTCTAGAGGATCCGA
DNA 2: AGCAATGTAATCGTCTATGACGTTG
As for B5, the binding result with KlHIRAN (label: 3'-FAM on D3a, 3' overhang 25 nt (D3a)) is given as “binds”.
